From paper PMC7020397 (Toxins, 2020)
Ends that are not written are not given here.

Experiments:
[1] = molecular target: muscle-type Torpedo nAChR (Torpedo); assay: competition with α-bungarotoxin
human neuronal α7 nAChR = human neuronal α7 nAChR (human, UniProt P36544 23-502); assay: competition with α-bungarotoxin
Sequence of human neuronal α7 nAChR (P36544 23-502): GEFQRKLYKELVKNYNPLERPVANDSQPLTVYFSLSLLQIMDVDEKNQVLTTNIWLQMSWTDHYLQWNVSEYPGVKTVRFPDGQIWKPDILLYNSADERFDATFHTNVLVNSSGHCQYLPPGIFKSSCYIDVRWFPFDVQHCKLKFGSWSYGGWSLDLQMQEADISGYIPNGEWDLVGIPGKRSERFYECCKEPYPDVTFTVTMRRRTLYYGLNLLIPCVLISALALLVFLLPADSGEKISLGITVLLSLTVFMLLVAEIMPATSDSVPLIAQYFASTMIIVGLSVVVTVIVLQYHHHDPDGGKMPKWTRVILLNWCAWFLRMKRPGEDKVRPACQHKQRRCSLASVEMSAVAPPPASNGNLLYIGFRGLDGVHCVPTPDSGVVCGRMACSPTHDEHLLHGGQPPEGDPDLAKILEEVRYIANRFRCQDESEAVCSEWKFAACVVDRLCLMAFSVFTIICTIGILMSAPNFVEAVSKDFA

Sequence of muscle-type Torpedo nAChR (Torpedo) (P02710 25-461 limits assumed, chain 1 of 4): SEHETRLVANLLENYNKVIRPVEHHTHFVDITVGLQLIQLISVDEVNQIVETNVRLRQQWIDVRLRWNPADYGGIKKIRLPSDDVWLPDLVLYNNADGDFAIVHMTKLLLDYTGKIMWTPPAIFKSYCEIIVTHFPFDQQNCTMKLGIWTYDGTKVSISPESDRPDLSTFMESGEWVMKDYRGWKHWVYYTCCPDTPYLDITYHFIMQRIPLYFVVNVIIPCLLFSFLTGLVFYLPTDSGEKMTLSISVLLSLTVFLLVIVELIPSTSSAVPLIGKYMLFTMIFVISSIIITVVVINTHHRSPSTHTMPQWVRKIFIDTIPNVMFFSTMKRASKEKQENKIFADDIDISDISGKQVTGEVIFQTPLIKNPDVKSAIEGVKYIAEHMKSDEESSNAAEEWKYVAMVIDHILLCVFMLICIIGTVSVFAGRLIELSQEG
Sequence of muscle-type Torpedo nAChR (Torpedo) (P02712 25-493 limits assumed, chain 2 of 4, further chain): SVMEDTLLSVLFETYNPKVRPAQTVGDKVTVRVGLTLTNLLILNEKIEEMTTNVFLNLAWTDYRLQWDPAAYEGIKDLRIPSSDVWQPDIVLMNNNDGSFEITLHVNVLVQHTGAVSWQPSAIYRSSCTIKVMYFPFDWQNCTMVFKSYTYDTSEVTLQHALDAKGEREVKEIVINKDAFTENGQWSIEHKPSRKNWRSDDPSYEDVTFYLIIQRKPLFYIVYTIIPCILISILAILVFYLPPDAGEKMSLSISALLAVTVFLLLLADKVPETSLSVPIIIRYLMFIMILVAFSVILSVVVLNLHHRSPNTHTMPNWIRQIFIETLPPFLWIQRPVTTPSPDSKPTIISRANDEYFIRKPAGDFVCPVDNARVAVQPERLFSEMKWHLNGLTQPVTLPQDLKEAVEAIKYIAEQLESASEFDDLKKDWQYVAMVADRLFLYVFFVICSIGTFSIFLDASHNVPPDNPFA
Sequence of muscle-type Torpedo nAChR (Torpedo) (P02714 18-506 limits assumed, chain 3 of 4, further chain): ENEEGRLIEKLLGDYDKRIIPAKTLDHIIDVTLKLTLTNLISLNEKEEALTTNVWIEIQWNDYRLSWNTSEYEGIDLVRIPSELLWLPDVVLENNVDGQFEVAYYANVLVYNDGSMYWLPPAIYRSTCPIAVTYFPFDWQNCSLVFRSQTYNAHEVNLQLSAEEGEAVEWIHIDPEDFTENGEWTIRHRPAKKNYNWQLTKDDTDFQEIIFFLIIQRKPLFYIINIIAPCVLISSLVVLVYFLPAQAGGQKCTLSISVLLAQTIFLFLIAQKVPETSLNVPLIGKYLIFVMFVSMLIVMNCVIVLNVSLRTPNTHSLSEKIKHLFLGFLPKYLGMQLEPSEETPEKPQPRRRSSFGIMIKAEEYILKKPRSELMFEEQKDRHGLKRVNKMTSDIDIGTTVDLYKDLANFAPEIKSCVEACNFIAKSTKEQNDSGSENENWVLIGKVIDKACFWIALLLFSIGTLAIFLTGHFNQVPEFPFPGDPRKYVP
Sequence of muscle-type Torpedo nAChR (Torpedo) (P02718 22-522 limits assumed, chain 4 of 4, further chain): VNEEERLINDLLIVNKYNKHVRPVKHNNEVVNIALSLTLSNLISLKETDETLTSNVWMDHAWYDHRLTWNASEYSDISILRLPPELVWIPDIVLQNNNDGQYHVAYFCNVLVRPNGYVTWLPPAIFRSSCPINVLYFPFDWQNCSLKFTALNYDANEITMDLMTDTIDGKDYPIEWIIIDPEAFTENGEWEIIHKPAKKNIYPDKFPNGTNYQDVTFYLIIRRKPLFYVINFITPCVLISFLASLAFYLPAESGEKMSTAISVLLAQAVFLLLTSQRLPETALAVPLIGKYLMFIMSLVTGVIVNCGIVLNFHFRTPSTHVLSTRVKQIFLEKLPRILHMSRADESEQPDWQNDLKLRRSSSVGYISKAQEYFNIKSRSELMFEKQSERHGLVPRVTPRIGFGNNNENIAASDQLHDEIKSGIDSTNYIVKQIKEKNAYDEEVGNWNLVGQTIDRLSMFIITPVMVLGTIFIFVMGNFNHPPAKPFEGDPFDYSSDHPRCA
Sequence of OSK-1 (P55896 whole entry): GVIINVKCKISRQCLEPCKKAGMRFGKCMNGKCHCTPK

Row | Molecule | IC50 [1] [nM] | IC50 (human neuronal α7 nAChR) [nM]
1 | spinoxin (from UniProt P84094 1-34) (peptide) | 500 | –
2 | OSK-1 (from UniProt P55896 1-38) (peptide) | 500 | –
3 | DNWWPKPPHQGPRPPRPRPKP (not fully specified, source: synthetic peptide) [azemiopsin] | 180 | 22000
